# Experimental data reported in publication PMC9400494.
# Key:
# Assay in all cases: fluorescence polarization
# [1] = system: nsp8 (SARS-CoV-2 (Wuhan-1 strain))
# [2] = system: nsp8L7 (nsp8-GSGSGS-nsp7 fusion) (SARS-CoV-2 (Wuhan-1 strain))
# [3] = system: nsp12 RdRP (SARS-CoV-2 (Wuhan-1 strain))
# [4] = system: nsp7 (SARS-CoV-2 (Wuhan-1 strain))
substance,measurement,setting,value
FP primer-template RNA hairpin,Kd,[1],200 nM
same,Kd,[2],200 nM
same,Kd,[3],200 nM
same,Kd,[4],7000 nM
